Data from PMC11341838 (Nature Communications, 2024).

Biological target: T1, Pf3D7 recombinant AMA1, full ectodomain (domain I, II and III) (P. falciparum (strain 3D7))
T1 chain: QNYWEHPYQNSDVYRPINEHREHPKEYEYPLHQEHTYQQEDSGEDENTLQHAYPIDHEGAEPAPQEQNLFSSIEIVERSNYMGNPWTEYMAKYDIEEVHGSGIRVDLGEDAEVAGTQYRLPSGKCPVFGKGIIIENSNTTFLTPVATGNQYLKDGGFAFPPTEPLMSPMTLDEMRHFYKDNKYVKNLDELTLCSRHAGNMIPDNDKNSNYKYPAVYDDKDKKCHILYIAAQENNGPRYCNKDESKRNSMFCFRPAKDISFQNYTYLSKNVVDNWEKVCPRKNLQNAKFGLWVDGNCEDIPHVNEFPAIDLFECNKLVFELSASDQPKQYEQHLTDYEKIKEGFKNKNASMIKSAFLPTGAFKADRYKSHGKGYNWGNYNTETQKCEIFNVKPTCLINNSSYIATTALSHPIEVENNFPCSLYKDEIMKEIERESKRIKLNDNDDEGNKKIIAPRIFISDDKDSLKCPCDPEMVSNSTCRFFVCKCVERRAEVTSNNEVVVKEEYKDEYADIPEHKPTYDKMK
Assay: ELISA

B1: mAb 1F9 (antibody, V domains shown)
VH: EVQLQQSGAELLKPGASVKLSCIVSGFKIKDTSMHWVKQRPEQGLEWIGRIDPANDNSEYDPKFQGKATITADTSSNTAYLQLSSLTSEDTAVYYCTLSHFWGQGTTLTVSS
VL: SIVMTQTPKFLPVSAGDRVTIICKASQSVSNDVVWYQQKPGQSPKLLIYYASIRYTGVPDRFTGSGYGTDFTFTISTVQVEDLAVYFCQQGFSSPRTFGGGTKLEIN
- binding result: binds
